One assay has as its target human IL-11 (human) (UniProt P20809). As to the kind of experiment: cell-based or functional assay.
For the next assay, the target named is murine IL-11 (mouse) (UniProt P47873). As to the kind of experiment: cell-based or functional assay.
Chain of UniProt P47873 (P47873 22-199 limits assumed): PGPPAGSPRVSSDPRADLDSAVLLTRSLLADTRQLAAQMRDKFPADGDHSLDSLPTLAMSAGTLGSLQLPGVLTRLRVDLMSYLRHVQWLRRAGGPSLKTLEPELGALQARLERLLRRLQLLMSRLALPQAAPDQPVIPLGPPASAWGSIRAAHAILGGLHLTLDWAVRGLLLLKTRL

Chain of UniProt P20809 (P20809 22-199 limits assumed): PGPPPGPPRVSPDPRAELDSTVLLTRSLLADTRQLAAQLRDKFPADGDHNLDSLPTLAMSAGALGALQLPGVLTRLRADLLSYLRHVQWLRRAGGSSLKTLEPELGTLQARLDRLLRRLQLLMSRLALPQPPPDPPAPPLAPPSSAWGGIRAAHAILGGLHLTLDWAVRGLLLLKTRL

Take “neutralising anti-human IL-11 monoclonal antibody (Monoclonal Mouse IgG2A; Clone #22626; Catalog No. MAB218; R&D Systems, MN, USA)”: in the assay with human IL-11 (human), the percentage of activated (αSMA-positive) human atrial fibroblasts with TGFβ1 (% activated fibroblasts) worked out at 28.3; the percentage of activated fibroblasts normalised to non-stimulated cultures (fold of non-stimulated cultures) is 0.99; the percentage of activated human atrial fibroblasts with TGFβ1, against unstimulated cultures (fold of unstimulated cultures) worked out at 0.89. In the assay with murine IL-11 (mouse), the percentage of activated fibroblasts normalised to non-stimulated cultures (fold of non-stimulated cultures) was found to be 1.24; the percentage of activated mouse atrial fibroblasts with TGFβ1, against unstimulated cultures (fold of unstimulated cultures) was 1.44; the percentage of activated mouse dermal fibroblasts with TGFβ1 (% activated fibroblasts) worked out at 39.4.

The record behind these values is EP4810608A2.
